Results as given in paper PMC9977683, “IFNγ binding to extracellular matrix prevents fatal systemic toxicity” (Nature Immunology, 2023).

T1: IFNγR1 extracellular domain (amino acids 26–254), recombinant (mouse, UniProt P15261 26-254)
T1 construct: mouse interferon-gamma receptor 1, extracellular domain, amino acids 26-254, cloned from mouse cDNA into pET26b-N-His6-SUMO; Immobilised on the chip through anti-His5; source: E. coli (T7 express, with pRARE plasmid), periplasmic expression, purified (osmotic shock, HisTrap, gel filtration); not shown: His6-SUMO, N-terminal, cleaved; His6, C-terminal, kept
T1 sequence (looked up): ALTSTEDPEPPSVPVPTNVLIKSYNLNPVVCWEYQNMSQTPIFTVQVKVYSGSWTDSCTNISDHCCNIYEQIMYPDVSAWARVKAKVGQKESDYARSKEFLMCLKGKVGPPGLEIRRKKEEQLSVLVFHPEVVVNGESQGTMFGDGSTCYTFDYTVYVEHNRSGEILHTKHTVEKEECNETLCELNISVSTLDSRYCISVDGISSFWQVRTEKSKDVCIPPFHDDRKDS


Assays:
[1] = biological target: IFNγ receptor (Homo sapiens) (UniProt P15260); conditions: cited from earlier work
Chain of IFNγ receptor (Homo sapiens) (P15260 18-245): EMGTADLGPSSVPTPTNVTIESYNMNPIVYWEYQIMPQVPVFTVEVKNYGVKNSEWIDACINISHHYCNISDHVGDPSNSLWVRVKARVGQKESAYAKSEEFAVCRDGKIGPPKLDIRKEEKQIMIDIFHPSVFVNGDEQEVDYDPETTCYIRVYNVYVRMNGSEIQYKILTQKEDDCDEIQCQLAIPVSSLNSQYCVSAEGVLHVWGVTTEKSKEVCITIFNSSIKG

[2] = biological target: T1, IFNγR1 extracellular domain (amino …); assay: SPR; Biacore T200, CM4 chip coated with anti-His5 onto which recombinant IFNγR1 was immobilised; IFNγ variants injected over 180 s at 0, 1, 2.5, 5, 10, 25 and 50 nM; conditions: both partners purified

Chain of IFNγ (P01579 24-161): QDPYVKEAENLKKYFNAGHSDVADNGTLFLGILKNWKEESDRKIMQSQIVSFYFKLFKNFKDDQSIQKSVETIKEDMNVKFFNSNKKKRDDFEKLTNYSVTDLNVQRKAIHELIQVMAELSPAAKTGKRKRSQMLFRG

Row | binding result [2] | Molecule | Kd [1] [nM]
1 | – | IFNγ (from UniProt P01579) | 0.5
2 | binds | Interferon-γ (IFNγ), recombinant (ligand, mouse, UniProt P01580 23-155, looked up, mouse interferon-gamma, cDNA without the leader peptide, codon optimized, in pET28-N-His6-SUMO; also called IFNγ^wt; source: E. coli (T7 express, with pRARE plasmid), purified (HisTrap, size-exclusion chromatography); not shown: His6-SUMO, N-terminal, cleaved) HGTVIESLESLNNYFNSSGIDVEEKSLFLDIWRNWQKDGDMKILQSQIISFYLRLFEVLKDNQAISNNISVIESHLITTFFSNSKAKKDAFMSIAKFEVNNPQVQRQAFNELIRVVHQLLPESSLRKRKRSRC | –
3 | binds | IFNγ–green fluorescent protein fusion protein (IFNγ–GFP), recombinant (ligand, mouse, UniProt P01580 23-155, looked up, mouse interferon-gamma, cDNA without the leader peptide, with GFP fused to the C-terminus; source: E. coli (T7 express, with pRARE plasmid), purified (HisTrap, Superdex 200); not shown: His6-SUMO, N-terminal, cleaved; GFP, C-terminal, kept) HGTVIESLESLNNYFNSSGIDVEEKSLFLDIWRNWQKDGDMKILQSQIISFYLRLFEVLKDNQAISNNISVIESHLITTFFSNSKAKKDAFMSIAKFEVNNPQVQRQAFNELIRVVHQLLPESSLRKRKRSRC | –
